# From paper PMC9714666 (Frontiers in Immunology, 2022)
# B1: D27LEY (antibody, V domains shown)
# VH: QVQLQQSGAEVKKPGSSVKVSCKASGGTFGNWSISWVRQAPGQGLEWMGGIAPGRGEATYAQKFQGRVTITTDESTSTAYMELSSLRSEDTAVYYCARETWYTSGGMDVWGQGTTVTVSS
# VL: SYELTQPPSVSVAPGKTARITCGGNNIGRKSVHWYQQKPGQAPVLVVYDDSDRPSGIPERFSGSNSGNTATLTISRVEAGDEADYYCQVYDLWSSDYVFGTGTKVEIK
# Legend:
# [1] = biological target: T1, SARS-CoV-2 Omicron BA.5 RBD, biotinylated (SARS-CoV-2 Omicron BA.5, strain, biotinylated); assay: BLI; settings: both partners purified
# T1 construct: source: bought: ACRObiosystems
# [2] = biological target: T2, SARS-CoV-2 Omicron (B.1.1.529) RBD, biotinylated (SARS-CoV-2 Omicron B.1.1.529 (BA.1), strain, biotinylated); assay: BLI; settings: both partners purified
# T2 construct: source: bought: ACRObiosystems
binder,measurement,setting,value
B1,Kd,[1],0.37 nM
same,Kd,[2],0.34 nM
